Test results published in patent US20220289795, “EFFICIENT METHOD FOR PREPARING PPR PROTEIN AND USE OF THE SAME” (EditForce, Inc., published 2022).

Columns and labels:
Test in all cases: ELONA; RPB-ELISA
NL_v2_PPR12 = target: T1, NL_v2_PPR12 (Artificial Sequence); conditions: tags: N-term luciferase, C-term 6xHis; label: 5'-biotin
T1 chain: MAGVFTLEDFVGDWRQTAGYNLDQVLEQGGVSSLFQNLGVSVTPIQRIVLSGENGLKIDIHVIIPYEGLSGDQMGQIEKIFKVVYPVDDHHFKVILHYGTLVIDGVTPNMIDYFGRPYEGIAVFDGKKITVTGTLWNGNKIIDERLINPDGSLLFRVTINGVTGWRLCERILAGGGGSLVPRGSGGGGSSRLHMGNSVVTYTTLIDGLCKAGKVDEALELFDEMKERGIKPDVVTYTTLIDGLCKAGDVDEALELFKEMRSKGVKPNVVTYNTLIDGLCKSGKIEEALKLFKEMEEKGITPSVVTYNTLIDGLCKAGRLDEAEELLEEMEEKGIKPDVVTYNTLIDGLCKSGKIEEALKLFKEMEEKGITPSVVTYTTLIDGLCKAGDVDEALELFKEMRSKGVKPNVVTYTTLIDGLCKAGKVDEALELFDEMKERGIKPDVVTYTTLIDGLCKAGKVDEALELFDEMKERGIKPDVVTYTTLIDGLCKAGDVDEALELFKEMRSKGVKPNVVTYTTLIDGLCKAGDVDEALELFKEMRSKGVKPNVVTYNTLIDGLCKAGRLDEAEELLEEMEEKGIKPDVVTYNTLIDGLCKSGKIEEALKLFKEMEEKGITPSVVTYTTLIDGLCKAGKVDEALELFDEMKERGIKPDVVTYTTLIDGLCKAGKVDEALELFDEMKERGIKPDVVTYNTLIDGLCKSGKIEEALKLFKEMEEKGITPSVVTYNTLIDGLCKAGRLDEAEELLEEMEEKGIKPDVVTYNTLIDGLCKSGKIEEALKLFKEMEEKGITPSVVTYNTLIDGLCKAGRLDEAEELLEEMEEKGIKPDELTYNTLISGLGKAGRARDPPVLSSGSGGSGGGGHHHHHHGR

v3.1_PPR12 = target: T2, v3.1_PPR12 (Artificial Sequence); conditions: tags: luciferase fusion; label: 5'-biotin
T2 chain: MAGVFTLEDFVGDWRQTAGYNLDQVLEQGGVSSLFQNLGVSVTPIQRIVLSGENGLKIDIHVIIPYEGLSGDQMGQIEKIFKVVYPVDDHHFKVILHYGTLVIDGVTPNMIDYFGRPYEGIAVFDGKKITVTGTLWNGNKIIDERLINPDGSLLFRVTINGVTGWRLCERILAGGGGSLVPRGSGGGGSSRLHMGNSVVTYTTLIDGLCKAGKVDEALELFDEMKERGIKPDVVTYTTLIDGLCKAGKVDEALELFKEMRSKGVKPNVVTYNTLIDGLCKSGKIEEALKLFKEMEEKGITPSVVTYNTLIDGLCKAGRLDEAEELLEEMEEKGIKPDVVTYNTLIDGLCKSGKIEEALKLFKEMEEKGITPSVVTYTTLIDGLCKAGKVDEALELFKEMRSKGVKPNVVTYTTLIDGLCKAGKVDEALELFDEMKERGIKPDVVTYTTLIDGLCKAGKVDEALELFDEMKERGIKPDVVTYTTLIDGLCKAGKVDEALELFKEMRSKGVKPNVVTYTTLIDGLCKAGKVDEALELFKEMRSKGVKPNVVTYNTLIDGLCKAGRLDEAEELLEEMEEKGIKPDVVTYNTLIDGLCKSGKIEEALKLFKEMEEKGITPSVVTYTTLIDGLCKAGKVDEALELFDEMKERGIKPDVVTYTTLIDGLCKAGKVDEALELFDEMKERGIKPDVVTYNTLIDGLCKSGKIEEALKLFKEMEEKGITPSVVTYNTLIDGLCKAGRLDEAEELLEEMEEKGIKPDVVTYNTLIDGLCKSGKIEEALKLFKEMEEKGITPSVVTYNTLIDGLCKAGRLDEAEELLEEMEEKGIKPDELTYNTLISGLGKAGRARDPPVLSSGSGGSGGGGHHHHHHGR

NL_v2_PPR11 = target: T3, NL_v2_PPR11 (Artificial Sequence); conditions: tags: N-term luciferase, C-term 6xHis; label: 5'-biotin
T3 chain: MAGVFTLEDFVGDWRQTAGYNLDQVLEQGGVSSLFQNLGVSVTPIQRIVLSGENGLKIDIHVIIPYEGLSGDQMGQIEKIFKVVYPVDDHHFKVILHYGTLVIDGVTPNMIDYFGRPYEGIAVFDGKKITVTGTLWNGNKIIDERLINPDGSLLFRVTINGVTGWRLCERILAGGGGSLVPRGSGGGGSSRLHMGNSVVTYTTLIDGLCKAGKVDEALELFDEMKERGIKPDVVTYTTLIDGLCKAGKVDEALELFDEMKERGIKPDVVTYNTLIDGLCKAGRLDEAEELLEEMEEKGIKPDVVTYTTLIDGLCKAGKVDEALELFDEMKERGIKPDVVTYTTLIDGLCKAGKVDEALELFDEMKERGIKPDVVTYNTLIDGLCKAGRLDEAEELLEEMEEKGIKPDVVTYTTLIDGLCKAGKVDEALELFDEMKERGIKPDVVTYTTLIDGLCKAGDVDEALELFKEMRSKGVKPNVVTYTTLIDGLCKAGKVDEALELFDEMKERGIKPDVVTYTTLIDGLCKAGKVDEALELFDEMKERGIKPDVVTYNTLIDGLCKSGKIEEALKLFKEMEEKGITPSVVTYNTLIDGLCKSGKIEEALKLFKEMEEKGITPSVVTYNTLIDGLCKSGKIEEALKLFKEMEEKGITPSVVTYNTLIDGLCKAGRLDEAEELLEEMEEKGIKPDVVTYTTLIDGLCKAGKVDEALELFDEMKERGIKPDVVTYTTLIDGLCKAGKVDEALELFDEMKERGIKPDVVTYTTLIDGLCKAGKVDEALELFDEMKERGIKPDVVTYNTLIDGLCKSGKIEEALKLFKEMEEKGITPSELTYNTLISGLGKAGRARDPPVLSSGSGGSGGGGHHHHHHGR

v3.1_PPR11 = target: T4, v3.1_PPR11 (Artificial Sequence); conditions: tags: luciferase fusion; label: 5'-biotin
T4 chain: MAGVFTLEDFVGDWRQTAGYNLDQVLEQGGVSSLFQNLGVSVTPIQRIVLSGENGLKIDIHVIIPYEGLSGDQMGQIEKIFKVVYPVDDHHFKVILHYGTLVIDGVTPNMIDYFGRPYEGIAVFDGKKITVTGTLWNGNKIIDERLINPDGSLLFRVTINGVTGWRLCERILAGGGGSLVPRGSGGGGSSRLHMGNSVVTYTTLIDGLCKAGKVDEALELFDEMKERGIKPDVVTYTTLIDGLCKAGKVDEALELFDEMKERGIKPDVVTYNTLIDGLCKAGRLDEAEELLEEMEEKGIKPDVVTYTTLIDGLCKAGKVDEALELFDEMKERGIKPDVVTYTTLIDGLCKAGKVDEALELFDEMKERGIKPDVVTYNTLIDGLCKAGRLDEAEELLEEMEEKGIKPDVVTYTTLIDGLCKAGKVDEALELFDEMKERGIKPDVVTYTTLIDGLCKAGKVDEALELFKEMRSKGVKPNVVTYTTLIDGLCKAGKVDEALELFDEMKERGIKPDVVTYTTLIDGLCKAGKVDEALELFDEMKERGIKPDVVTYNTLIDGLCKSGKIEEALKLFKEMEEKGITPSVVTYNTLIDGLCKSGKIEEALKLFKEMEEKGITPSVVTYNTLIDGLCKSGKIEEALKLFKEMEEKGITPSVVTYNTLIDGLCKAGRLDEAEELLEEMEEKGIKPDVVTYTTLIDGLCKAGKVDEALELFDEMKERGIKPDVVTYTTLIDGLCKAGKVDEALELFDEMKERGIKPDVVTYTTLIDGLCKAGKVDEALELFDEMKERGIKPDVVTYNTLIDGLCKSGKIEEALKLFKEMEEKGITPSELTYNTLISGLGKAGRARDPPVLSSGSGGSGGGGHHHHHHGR

v3.1_PPR10 = target: T5, v3.1_PPR10 (Artificial Sequence); conditions: tags: luciferase fusion; label: 5'-biotin
T5 chain: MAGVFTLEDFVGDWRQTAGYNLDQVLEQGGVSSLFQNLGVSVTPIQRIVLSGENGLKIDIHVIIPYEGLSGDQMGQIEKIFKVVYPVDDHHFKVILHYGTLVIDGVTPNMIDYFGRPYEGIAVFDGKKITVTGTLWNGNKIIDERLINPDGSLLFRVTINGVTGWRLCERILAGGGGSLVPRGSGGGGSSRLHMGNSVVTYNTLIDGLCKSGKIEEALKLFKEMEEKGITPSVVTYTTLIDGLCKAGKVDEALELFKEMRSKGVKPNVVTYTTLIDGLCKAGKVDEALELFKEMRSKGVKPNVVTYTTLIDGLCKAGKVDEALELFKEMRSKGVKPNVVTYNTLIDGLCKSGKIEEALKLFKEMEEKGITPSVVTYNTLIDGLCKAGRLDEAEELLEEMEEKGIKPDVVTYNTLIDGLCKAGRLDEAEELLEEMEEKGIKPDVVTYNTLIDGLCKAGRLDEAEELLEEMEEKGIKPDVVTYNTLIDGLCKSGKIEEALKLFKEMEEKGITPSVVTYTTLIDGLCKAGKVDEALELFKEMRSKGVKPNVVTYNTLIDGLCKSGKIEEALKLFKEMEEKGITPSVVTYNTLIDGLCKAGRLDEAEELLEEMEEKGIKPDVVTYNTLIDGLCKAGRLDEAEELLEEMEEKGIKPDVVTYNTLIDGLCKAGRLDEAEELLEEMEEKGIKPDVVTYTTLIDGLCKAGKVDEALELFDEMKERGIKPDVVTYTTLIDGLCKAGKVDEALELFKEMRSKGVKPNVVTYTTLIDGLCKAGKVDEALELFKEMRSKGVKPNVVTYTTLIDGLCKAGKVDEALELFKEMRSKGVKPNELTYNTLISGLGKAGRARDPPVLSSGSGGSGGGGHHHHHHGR

NL_v2_PPR10 = target: T6, NL_v2_PPR10 (Artificial Sequence); conditions: tags: N-term luciferase, C-term 6xHis; label: 5'-biotin
T6 chain: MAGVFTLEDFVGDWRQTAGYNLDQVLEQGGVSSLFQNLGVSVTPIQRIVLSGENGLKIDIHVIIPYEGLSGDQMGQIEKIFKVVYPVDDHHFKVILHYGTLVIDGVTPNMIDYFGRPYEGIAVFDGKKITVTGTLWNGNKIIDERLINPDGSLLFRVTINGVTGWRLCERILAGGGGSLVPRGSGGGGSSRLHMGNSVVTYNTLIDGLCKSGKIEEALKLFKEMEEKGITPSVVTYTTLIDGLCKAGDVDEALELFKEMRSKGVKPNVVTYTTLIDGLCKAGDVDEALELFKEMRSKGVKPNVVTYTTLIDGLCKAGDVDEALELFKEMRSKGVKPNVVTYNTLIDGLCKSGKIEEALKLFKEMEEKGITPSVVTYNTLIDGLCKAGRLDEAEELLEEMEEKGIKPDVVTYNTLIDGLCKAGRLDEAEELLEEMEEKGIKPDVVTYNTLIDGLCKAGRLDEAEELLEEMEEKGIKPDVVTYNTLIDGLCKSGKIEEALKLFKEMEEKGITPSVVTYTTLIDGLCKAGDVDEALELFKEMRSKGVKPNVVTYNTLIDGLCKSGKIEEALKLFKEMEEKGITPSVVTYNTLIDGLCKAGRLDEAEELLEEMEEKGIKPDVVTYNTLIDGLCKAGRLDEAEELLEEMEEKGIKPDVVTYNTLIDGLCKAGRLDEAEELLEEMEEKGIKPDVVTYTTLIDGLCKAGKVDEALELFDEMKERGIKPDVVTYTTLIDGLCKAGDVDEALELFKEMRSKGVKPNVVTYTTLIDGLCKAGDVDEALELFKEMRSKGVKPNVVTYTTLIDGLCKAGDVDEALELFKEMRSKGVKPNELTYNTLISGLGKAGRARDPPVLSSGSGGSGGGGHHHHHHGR

GACAUGCGACUCAGGAAUCGGCUCUGACUG (ssRNA) [RNA_12] showed a binding signal (NL_v2_PPR12) of 3.8e+07 luminescence and a binding signal (v3.1_PPR12) of 1.8e+07 luminescence.

For GACAUGCGGUGGUGAGGCCCUGGGCGACUG (ssRNA) [RNA_11], the binding signal (NL_v2_PPR11) was 1.2e+07 luminescence and the binding signal (v3.1_PPR11) was 2.6e+07 luminescence.

With GACAUGCCAAACUUUCACUUUGAAAGACUG (ssRNA) [RNA_10] the binding signal (v3.1_PPR10) was 5.8e+07 luminescence and the binding signal (NL_v2_PPR10) was 7.8e+06 luminescence.
